Key:
murine IL-7Rα = target: T1, murine IL-7Rα (murine, UniProt P16872 21-459); assay: affinity labeling of transfected 293 cells with 125I-TSLP, DSS cross-linking, SDS-PAGE
T1 construct: whole, on cells; Expressed alone on transfected 293 cells; also called murine IL-7Rα alone
T1 sequence (looked up): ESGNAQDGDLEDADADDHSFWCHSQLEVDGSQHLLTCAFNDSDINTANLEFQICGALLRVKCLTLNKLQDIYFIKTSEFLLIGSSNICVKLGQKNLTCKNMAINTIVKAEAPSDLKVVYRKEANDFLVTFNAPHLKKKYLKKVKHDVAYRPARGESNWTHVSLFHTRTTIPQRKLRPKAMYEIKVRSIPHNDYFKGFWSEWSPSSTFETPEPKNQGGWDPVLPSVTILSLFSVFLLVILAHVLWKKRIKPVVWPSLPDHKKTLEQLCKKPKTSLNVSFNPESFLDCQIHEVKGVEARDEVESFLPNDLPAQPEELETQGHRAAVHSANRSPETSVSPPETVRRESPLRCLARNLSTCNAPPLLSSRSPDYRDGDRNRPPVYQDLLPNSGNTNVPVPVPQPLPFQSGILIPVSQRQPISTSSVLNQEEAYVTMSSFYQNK
Procedure: The binding of TSLP to TSLPR polypeptide in the presence of IL-7Rα was examined in affinity labeling assays. Affinity labeling assays were performed by adding 1-5 nM of ¹²⁵I-labeled TSLP to 5×10⁶ 293 cells transfected with expression constructs for murine IL-7Rα, murine TSLPR polypeptide, murine IL-7Rα and murine TSLPR polypeptide, or human IL-7Rα and murine TSLPR polypeptide. Iodinated TSLP was prepared by adding IODO-GEN (Pierce, Rockford, Ill.) and 2 mCi ¹²⁵I to 1 μg of TSLP. A specific activity of approximately 200-300 μCi/μg was obtained by this method. Prior to affinity labeling, 293 cells were transiently transfected using the calcium phosphate method (Eppendorf-5 Prime, Boulder, Colo.). Following a 2 hour incubation with ¹²⁵I-TSLP, cells were cross-linked with 0.1 mg/ml disuccinimidyl suberate (Pierce), lysed in lysis buffer, and the lysates resolved by SDS-PAGE.

[1] = target: T2, TSLP receptors constitutively expressed on NAG8/7 cells; assay: displacement binding of 125I-TSLP by unlabeled TSLP on NAG8/7 cells, Scatchard transformation
T2 construct: also called single class of receptors
Procedure: The binding of TSLP to 293 cells transfected with murine IL-7Rα and murine TSLPR polypeptide, or murine IL-7Rα alone, was analyzed in a displacement binding assay. Following two washes, 1×10⁶transfected 293 cells were incubated in a constant amount of ¹²⁵I-labeled TSLP (approximately 20,000 cpm) and varying amounts of unlabeled TSLP. Following a 3 hour incubation, treated cells were separated from the medium by centrifugation in olive oil and N-butylphthalate. Cell-bound radioactivity was measured using a gamma counter.
Analysis of binding data by Scatchard transformation was performed using the LIGAND computer program (Munson and Rodbard, 1980, Anal. Biochem. 107:220-39). […] Due to the very low binding activity of TSLP for cells expressing TSLPR polypeptide alone, it was not possible to determine the Kd for these cells. Displacement binding assays were also performed using NAG8/7 cells, which constitutively express TSLP receptors and proliferate in response to TSLP (Friend et al., supra; Levin et al., supra). In these displacement binding assays, 5×10⁶ NAG8/7 cells were incubated in a constant amount of ¹²⁵I-labeled TSLP (approximately 180,000 cpm) and varying amounts of unlabeled TSLP. The remainder of the assay was performed as described herein.

T2 sequence (Q8CII9 20-359): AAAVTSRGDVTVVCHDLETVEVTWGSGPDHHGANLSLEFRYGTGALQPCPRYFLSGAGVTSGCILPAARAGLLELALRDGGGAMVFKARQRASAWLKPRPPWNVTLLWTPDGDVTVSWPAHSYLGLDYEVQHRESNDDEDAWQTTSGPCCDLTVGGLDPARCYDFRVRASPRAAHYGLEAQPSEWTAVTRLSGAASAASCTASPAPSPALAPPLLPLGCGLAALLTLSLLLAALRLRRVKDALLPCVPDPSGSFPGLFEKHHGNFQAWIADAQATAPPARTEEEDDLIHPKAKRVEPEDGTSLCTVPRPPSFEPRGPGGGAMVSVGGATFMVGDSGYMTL

B1: Thymic stromal lymphopoietin (TSLP) (ligand, UniProt Q9JIE6 20-140, looked up)
chain: YNFSNCNFTSITKIYCNIIFHDLTGDLKGAKFEQIEDCESKPACLLKIEYYTLNPIPGCPSLPDKTFARRTREALNDHCPGYPETERNDGTQEMAQEVQNICLNQTSQILRLWYSFMQSPE
- binding result (murine IL-7Rα): no binding (tested: 1-5 nM of 125I-labeled TSLP)
- Kd [1]: ~2.2 nM
